Consider two molecules from paper PMC11273223 (Glycobiology, 2024).

For one data set, the target named is T1, TcCGT1 (Trollius chinensis, UniProt A0A4Y5RXX8).
T1 sequence (A0A4Y5RXX8 2-483): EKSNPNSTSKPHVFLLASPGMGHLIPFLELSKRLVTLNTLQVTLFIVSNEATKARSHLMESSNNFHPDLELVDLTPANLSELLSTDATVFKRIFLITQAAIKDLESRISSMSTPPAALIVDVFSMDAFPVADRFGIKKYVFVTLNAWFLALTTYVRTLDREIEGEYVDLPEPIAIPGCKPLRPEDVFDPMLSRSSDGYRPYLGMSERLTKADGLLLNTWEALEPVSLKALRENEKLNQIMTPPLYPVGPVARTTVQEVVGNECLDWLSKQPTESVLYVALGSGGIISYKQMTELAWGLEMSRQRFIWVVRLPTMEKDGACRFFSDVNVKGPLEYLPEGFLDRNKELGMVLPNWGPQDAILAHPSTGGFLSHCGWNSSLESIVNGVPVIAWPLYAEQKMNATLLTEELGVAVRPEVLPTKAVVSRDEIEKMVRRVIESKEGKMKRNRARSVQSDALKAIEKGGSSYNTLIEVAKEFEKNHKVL
In words: HPLC end-point turnover to O- and C-glucosides. It counts as biochemical. As to conditions: 50 μM aloesone, 200 μM UDP-Glc, 50 mM HEPES, pH 7.4, 30 °C, overnight.

Substrate in data set [1]: CC(=O)Cc1cc(=O)c2c(C)cc(O)cc2o1
In words: HPLC initial rates of O-glucoside formation, Michaelis-Menten fit. It counts as biochemical, Arabidopsis thaliana. To be noted: 0.8 mM UDP-Glc, 50 mM HEPES, 50 mM NaCl, pH 7.4.

In the case of `CC(=O)Cc1cc(=O)c2c(C)cc(O)cc2o1` [aloesone, 2-acetonyl-7-hydroxy-5-methylchromone], at TcCGT1, the “HPLC end-point turnover to O- and C-glucosides” value was “both C-and O-glucosides were detected in the reaction with TcCGT1”.

B1: UGT71C1 (Arabidopsis thaliana) (protein)
chain: GKQEDAELVIIPFPFSGHILATIELAKRLISQDNPRIHTITILYWGLPFIPQADTIAFLRSLVKNEPRIRLVTLPEVQDPPPMELFVEFAESYILEYVKKMVPIIREALSTLLSSRDESGSVRVAGLVLDFFCVPMIDVGNEFNLPSYIFLTCSAGFLGMMKYLPERHREIKSEFNRSFNEELNLIPGYVNSVPTKVLPSGLFMKETYEPWVELAERFPEAKGILVNSYTALEPNGFKYFDRCPDNYPTIYPIGPILCSNDRPNLDSSERDRIITWLDDQPESSVVFLCFGSLKNLSATQINEIAQALEIVDCKFIWSFRTNPKEYASPYEALPHGFMDRVMDQGIVCGWAPQVEILAHKAVGGFVSHCGWNSILESLGFGVPIATWPMYAEQQLNAFTMVKELGLALEMRLDYVSEDGDIVKADEIAGTVRSLMDGVDVPKSKVKEIAEAGKEAVDGGSSFLAVKRFIGDLIDGVSISK
By Km is commonly meant the concentration of substrate that gives half-maximal velocity. In general, kcat refers to the maximal rate divided by the concentration of active sites. By kcat/Km is commonly meant the turnover number divided by the Michaelis constant. With B1, in data set [1], the Km amounted to 50.54 ± 7.29 µM, the catalytic constant (kcat) was determined as 0.27 ± 0.01 s⁻¹ and the kcat/Km is 5000 M⁻¹ s⁻¹.
